These results are taken from patent publication US7267993 (AUBURN UNIVERSITY, dated 2007).

One assay concerns the target T1, neutravidin (chicken (stated for avidin), UniProt P02701 25-152).
T1 construct: Labeled with alkaline phosphatase in the ELISA; also called alkaline phosphatase-labeled neutravidin; avidin (from chicken egg white)
The assay is described as follows: direct ELISA: phage immobilized in wells, alkaline phosphatase-labeled neutravidin in solution at varied concentration [top panel]. From the text: (§1) Each binding curve is labeled with the altered amino acid sequence of the foreign peptide carried by the phage being tested (V_o=vector control). ELISA signal (mOD/min) is shown as a function of ligand concentration (micrograms/ml for top two panels; nanomolar for bottom panel).
(§2) *Escherichia coli*). Each protein was absorbed to the surface of a 35-mm polystyrene Petri dish and exposed to the phage library. Unbound phage were washed away, and bound phage was eluted with acid buffer and amplified by infecting fresh bacterial host cells. […] The selected phage were further characterized by enzyme linked immuno sorbent assay (ELISA) in which the phage were immobilized on the plastic surface of ELISA wells and reacted with the ligands in solution phase. Neutravidin and streptavidin were labeled with alkaline phosphatase, while β-galactosidase was unlabeled. […] Inhibition ELISAs verified that non-immobilized peptide-bearing phage compete with immobilized phage for binding to their respective ligands.
(In general: ELISA stands for enzyme-linked immunosorbent assay.)

Assay [1] addresses T2, β-galactosidase from Escherichia coli (Escherichia coli, UniProt P00722 2-1024 = β-galactosidase).
T2 construct: Unlabeled in the ELISA; in solution in all assays; also called b-galactosidase
Nature of the assay: direct ELISA: phage immobilized in wells, unlabeled β-galactosidase in solution at varied concentration [bottom panel].
Source text: as §1, §2

Assay [2] has as its target β-galactosidase from Escherichia coli (Escherichia coli) [β-galactosidase: P00722]. The description is as above.

T2 sequence (P00722 2-1024 limits assumed): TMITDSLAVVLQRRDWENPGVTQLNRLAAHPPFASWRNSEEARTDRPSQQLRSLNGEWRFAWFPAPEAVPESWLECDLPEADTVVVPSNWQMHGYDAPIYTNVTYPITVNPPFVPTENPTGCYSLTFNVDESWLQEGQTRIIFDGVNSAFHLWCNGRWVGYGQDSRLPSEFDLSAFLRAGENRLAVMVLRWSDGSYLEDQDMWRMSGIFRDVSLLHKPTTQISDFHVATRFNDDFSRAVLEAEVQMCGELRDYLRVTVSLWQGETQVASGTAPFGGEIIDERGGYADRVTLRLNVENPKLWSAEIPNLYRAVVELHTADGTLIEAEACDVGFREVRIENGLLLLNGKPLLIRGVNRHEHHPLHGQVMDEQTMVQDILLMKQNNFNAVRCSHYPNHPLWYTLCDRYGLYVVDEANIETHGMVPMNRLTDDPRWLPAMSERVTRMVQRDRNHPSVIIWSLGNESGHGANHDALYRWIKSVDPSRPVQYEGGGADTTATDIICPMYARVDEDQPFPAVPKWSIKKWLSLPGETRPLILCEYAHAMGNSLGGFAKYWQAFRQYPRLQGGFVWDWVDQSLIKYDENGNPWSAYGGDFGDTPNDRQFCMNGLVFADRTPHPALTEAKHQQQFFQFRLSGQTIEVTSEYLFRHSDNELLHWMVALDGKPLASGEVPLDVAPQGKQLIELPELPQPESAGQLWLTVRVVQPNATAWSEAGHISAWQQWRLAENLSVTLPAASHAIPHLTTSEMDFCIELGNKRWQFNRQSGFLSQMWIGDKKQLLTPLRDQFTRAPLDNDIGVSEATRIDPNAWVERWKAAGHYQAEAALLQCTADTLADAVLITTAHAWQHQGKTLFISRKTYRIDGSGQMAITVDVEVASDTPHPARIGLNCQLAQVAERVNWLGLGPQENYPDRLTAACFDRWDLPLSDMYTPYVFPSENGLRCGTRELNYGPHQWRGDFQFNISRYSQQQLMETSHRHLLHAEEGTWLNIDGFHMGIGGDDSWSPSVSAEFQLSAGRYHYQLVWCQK
T1 sequence (P02701 25-152 limits assumed): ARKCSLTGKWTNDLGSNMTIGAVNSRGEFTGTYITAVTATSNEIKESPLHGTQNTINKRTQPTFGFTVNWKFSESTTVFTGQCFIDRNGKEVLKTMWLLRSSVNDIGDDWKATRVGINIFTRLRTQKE
Sequence of β-galactosidase from Escherichia coli (Escherichia coli) [β-galactosidase: P00722] (P00722 2-1024 limits assumed): as the sequence (P00722 2-1024 limits assumed) above

B1: VPEYKGAS (other)
major coat protein pVIII carrying the foreign peptide: VPEYKGAS
notes: landscape phage immobilized in ELISA wells; belongs to group m4
Take B1: in the assay with neutravidin, the “EC50 (read off the curve)” value is roughly 3 micrograms/ml.

B2: DTFAKSMQ (other)
major coat protein pVIII carrying the foreign peptide: DTFAKSMQ
notes: landscape phage immobilized in ELISA wells
In the case of B2, in assay [1], the “EC50 (read off the curve)” value is roughly 60 nM.

B3: VPEYTGPS (other)
major coat protein pVIII carrying the foreign peptide: VPEYTGPS
notes: as for B1
As to B3, in the assay with neutravidin, the “EC50 (read off the curve)” value was roughly 3 micrograms/ml.
As to VTFAAANT, the EC50 (read off the curve) in assay [2] was found to be 100 nM.

B4: EKTLAYNQ (other)
major coat protein pVIII carrying the foreign peptide: EKTLAYNQ
notes: as for B2
B4: in assay [1], the “EC50 (read off the curve)” value was roughly 40 nM.

B5: EKTLAYSQ (other)
major coat protein pVIII carrying the foreign peptide: EKTLAYSQ
notes: as for B2
Regarding B5, the “EC50 (read off the curve)” value in assay [1] is roughly 70 nM.
